Laboratory results reported in patent publication US20250011450A1.
Positions count from the first letter of the chain named. One block for each binder: values may come before it.

What was measured:
[1] = target: OX40 expressed on Jurkat cells (NF-kB luciferase reporter line) (UniProt P43489); assay: cell-based or functional assay
[2] = target: anti-OX40 clone 3C8, iAbaff2 IgG; assay: SEC-MALS at 1.9 mg/ml, self-association
[3] = target: anti-OX40 clone 3C8, iAbaff2 IgG; assay: SEC-MALS, self-association
[4] = target: anti-OX40 clone 3C8, iAbaff2 IgG; assay: SEC-MALS at 0.38 mg/ml, self-association
[5] = target: anti-OX40 clone 3C8, iAbaff2 IgG; assay: SEC-MALS at 4.9 mg/ml, self-association

Chain of UniProt P43489 (P43489 29-277 limits assumed): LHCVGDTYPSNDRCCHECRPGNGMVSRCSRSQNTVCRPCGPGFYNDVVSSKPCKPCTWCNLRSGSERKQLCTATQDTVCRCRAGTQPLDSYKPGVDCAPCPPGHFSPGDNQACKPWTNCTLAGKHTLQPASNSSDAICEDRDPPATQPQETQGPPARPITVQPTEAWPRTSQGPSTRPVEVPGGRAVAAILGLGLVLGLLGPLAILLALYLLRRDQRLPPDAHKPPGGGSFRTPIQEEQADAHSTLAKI

EC50 of OX40 agonist activity (Jurkat OX40 NF-kB luciferase reporter), fold against iAb IgG [1]: 100 fold
maximal OX40 agonist activity (Jurkat OX40 NF-kB luciferase reporter), fold against iAb IgG [1]: 2 fold
B1: anti-OX40 clone 3C8, iAbaff1 monomeric Fab (Fab, part only; not given: Light chain, CH1 and tag, not shown: small tags and cut ends)
heavy, part: EVQLVQSGAEVKKPGATVVVLCKASGYAFTNYLIEWVRQAPGQGLEWIGVINPGSGDTYYSEKFKGRVTLFADTSTSQAILILTSLRSEDTAVYYCARDRLDYWGQGTLVTVSS

SEC-MALS Molecular Weight (Da) [2]: 225000 Da
SEC-MALS Molecular Weight (Da) [3]: 227000 Da
SEC-MALS Molecular Weight (Da) [4]: 204000 Da
SEC-MALS Molecular Weight (Da) [5]: 244000 Da
B2: anti-OX40 clone 3C8, iAbaff2 IgG (antibody, part only; not given: Light chain, V domains shown, part only)
VH: B1 heavy, part with T17S, V19I, L21S, T69F, Q78T, I80Y, I82V, T84S
